Data from patent US20170254813A1 (VENTANA MEDICAL SYSTEMS, published 2017).

Experiments:
[1] = target: T1, CD21 (complement receptor type 2) (UniProt P20023 21-1033, limits assumed); experiment: in situ proximity assay on FFPE normal tonsil sections
T1 construct: Endogenous protein in tissue section
T1 sequence (looked up): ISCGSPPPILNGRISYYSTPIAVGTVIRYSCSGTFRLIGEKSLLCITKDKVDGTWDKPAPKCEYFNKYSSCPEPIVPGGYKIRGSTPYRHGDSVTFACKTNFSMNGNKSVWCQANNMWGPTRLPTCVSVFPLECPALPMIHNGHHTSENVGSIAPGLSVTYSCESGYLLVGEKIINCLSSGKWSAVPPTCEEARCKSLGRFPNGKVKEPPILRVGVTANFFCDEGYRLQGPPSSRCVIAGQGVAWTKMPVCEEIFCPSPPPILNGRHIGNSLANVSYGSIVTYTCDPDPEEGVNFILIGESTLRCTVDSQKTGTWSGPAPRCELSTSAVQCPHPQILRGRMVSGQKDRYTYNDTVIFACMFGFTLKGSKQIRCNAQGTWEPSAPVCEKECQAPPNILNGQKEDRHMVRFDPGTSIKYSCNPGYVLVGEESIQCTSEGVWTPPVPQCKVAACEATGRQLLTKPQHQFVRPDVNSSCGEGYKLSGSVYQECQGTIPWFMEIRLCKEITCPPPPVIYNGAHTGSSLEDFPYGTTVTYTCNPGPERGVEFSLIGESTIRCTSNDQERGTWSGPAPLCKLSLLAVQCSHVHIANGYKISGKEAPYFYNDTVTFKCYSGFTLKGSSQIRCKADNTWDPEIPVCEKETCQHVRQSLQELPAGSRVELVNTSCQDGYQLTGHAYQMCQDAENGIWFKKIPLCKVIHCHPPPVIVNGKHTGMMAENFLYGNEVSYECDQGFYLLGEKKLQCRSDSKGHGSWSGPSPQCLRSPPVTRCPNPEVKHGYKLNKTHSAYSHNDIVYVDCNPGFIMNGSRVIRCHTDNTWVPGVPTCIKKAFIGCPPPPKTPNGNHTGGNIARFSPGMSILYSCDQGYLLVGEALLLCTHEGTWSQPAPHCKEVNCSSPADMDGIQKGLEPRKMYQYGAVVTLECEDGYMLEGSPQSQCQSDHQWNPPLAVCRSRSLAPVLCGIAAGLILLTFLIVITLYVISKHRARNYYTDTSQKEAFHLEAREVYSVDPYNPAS
Description: (§1) IHC staining was performed on a VENTANA BenchMark XT automated slide-processing system (Ventana). For all IHC staining, FFPE sections were first deparaffinization with EZ Prep solution (Ventana) and washed with reaction buffer. Antigen retrieval was carried out in Cell Conditioning 1 (Ventana) (100° C.; 92 minutes) and again washed with 1× reaction buffer (Ventana). […] After thorough wash with reaction buffer, secondary antibody conjugates of GAR-PEG₈-SS-HA-N₃ and GAM-PEG₄-CCH (100 μL of 10 μg/mL each) were added to slides and incubated at 37° C. for 32 minutes. The slides were washed in reaction buffer and water before a drop of 100 μL of HEPES buffer (0.15 M, pH 7.4) was added to the slides. To initiate the azide-acetylene click reaction, 100 μL of Cu(I) catalyst solution was added onto the slide. One working example of the Cu(I) solution contained 0.6 mM CuSO₄, 3 mM THPTA, 10 mM HEPES (pH=7.4), 40% DMSO (v/v) and 4 mM of sodium ascorbate (freshly made and added to CuSO₄ immediately before adding to slide). The click reaction was allowed to proceed for 32 minutes and the slides were washed thoroughly in reaction buffer. […] For chromogenic based detection using diaminobenzidine (DAB), ready-to-use solutions of DAB, H₂O₂ and Copper from an [sequence] […]

β-catenin = target: T2, β-catenin (UniProt P35222 2-781); experiment: in situ proximity assay (chemical ligation and hapten transfer) on FFPE tonsil and skin sections
T2 construct: Endogenous protein in tissue section; also called beta-catenin
T2 sequence (looked up): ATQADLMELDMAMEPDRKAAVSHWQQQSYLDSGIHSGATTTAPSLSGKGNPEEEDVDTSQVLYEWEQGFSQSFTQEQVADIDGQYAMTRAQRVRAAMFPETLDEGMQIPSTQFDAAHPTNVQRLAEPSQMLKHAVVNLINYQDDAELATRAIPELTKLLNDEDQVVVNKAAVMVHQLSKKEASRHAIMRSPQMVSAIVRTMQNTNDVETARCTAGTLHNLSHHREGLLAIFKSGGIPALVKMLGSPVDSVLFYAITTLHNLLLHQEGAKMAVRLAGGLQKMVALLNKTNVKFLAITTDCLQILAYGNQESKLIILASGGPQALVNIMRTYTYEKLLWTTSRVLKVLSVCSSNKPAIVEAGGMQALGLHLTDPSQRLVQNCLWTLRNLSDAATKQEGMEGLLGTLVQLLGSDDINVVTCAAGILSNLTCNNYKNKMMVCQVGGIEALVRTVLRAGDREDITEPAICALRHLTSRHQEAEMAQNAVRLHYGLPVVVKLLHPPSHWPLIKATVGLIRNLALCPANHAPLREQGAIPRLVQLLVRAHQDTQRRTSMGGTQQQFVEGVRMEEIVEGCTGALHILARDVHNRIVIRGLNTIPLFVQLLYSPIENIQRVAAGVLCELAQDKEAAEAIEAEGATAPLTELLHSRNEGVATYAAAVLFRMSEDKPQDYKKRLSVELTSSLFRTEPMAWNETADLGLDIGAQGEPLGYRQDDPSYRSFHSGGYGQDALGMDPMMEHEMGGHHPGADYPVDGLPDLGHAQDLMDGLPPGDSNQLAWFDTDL
Description: as §1

PMS2 = target: T3, PMS2 (UniProt P54278 1-862); experiment: in situ proximity assay on Hela cell xenograft sections
T3 construct: Endogenous protein of Hela cells in xenograft
T3 sequence (looked up): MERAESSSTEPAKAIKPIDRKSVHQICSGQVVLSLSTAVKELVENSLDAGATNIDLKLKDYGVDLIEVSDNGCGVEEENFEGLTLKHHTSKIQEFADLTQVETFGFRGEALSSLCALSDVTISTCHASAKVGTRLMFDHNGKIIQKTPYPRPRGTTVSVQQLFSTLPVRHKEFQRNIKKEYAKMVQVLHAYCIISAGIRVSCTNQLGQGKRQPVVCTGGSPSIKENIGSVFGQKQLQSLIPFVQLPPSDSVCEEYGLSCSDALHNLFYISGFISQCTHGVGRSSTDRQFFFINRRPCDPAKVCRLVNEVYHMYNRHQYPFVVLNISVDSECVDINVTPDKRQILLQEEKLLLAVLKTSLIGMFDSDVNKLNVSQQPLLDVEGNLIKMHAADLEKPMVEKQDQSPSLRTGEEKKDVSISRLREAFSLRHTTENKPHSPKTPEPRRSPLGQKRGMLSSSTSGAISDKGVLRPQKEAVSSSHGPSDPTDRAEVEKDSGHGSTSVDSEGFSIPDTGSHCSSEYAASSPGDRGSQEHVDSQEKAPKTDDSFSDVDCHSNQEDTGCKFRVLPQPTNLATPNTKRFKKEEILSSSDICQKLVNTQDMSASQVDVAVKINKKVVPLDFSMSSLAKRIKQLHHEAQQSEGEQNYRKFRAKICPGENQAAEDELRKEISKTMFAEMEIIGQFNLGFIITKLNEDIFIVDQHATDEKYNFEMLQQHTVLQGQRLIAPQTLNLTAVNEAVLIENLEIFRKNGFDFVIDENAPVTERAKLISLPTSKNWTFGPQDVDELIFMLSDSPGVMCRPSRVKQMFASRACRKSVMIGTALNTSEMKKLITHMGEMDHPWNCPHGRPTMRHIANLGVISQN

B1: CD19 (receptor, UniProt P15391 20-556, looked up)
chain: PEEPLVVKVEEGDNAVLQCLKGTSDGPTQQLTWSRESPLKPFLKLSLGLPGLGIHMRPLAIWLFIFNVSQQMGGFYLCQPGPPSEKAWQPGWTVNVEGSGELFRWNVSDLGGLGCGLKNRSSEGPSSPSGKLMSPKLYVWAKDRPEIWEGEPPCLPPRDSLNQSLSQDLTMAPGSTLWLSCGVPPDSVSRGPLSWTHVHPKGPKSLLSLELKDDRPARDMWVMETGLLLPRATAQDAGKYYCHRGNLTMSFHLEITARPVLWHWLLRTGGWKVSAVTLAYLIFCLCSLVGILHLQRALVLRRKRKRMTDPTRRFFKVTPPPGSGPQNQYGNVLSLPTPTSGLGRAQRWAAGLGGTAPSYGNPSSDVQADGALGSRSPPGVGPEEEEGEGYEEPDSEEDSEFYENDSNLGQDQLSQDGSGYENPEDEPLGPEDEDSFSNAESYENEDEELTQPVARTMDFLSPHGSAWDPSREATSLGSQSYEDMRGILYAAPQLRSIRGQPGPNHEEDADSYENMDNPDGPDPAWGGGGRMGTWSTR
notes: Endogenous protein in tissue section
binding result [1]: binds

B2: E-cadherin (other, UniProt P12830 155-882, looked up)
chain: DWVIPPISCPENEKGPFPKNLVQIKSNKDKEGKVFYSITGQGADTPPVGVFIIERETGWLKVTEPLDRERIATYTLFSHAVSSNGNAVEDPMEILITVTDQNDNKPEFTQEVFKGSVMEGALPGTSVMEVTATDADDDVNTYNAAIAYTILSQDPELPDKNMFTINRNTGVISVVTTGLDRESFPTYTLVVQAADLQGEGLSTTATAVITVTDTNDNPPIFNPTTYKGQVPENEANVVITTLKVTDADAPNTPAWEAVYTILNDDGGQFVVTTNPVNNDGILKTAKGLDFEAKQQYILHVAVTNVVPFEVSLTTSTATVTVDVLDVNEAPIFVPPEKRVEVSEDFGVGQEITSYTAQEPDTFMEQKITYRIWRDTANWLEINPDTGAISTRAELDREDFEHVKNSTYTALIIATDNGSPVATGTGTLLLILSDVNDNAPIPEPRTIFFCERNPKPQVINIIDADLPPNTSPFTAELTHGASANWTIQYNDPTQESIILKPKMALEVGDYKINLKLMDNQNKDQVTTLEVSVCDCEGAAGVCRKAQPVEAGLQIPAILGILGGILALLILILLLLLFLRRRAVVKEPLLPPEDDTRDNVYYYDEEGGGEEDQDFDLSQLHRGLDARPEVTRNDVAPTLMSVPRYLPRPANPDEIGNFIDENLKAADTDPTAPPYDSLLVFDYEGSGSEAASLSSLNSSESDKDQDYDYLNEWGNRFKKLADMYGGGEDD
notes: Endogenous protein in tissue section; also called E-cadherein
binding result (β-catenin): binds

B3: MLH1 (other, UniProt P40692 2-756, looked up)
chain: SFVAGVIRRLDETVVNRIAAGEVIQRPANAIKEMIENCLDAKSTSIQVIVKEGGLKLIQIQDNGTGIRKEDLDIVCERFTTSKLQSFEDLASISTYGFRGEALASISHVAHVTITTKTADGKCAYRASYSDGKLKAPPKPCAGNQGTQITVEDLFYNIATRRKALKNPSEEYGKILEVVGRYSVHNAGISFSVKKQGETVADVRTLPNASTVDNIRSIFGNAVSRELIEIGCEDKTLAFKMNGYISNANYSVKKCIFLLFINHRLVESTSLRKAIETVYAAYLPKNTHPFLYLSLEISPQNVDVNVHPTKHEVHFLHEESILERVQQHIESKLLGSNSSRMYFTQTLLPGLAGPSGEMVKSTTSLTSSSTSGSSDKVYAHQMVRTDSREQKLDAFLQPLSKPLSSQPQAIVTEDKTDISSGRARQQDEEMLELPAPAEVAAKNQSLEGDTTKGTSEMSEKRGPTSSNPRKRHREDSDVEMVEDDSRKEMTAACTPRRRIINLTSVLSLQEEINEQGHEVLREMLHNHSFVGCVNPQWALAQHQTKLYLLNTTKLSEELFYQILIYDFANFGVLRLSEPAPLFDLAMLALDSPESGWTEEDGPKEGLAEYIVEFLKKKAEMLADYFSLEIDEEGNLIGLPLLIDNYVPPLEGLPIFILRLATEVNWDEEKECFESLSKECAMFYSIRKQYISEESTLSGQQSEVPGSIPNSWKWTVEHIVYKALRSHILPPKHFTEDGNILQLANLPDLYKVFERC
notes: Endogenous protein of Hela cells in xenograft
binding result (PMS2): binds
